Drawing on patent US20150037348A1 (AbbVie / Abbott, published 2015), this text covers koff for 1 molecule.

As a reminder, the koff is the first-order rate constant of dissociation. A lower koff goes with slow dissociation.

Values joined by “and” are separate entries in the source; they are usually repeats but may differ in a detail not shown here. Identical values can stand only once. Like-named read-outs stand apart in the source and are kept apart here.

Experiment in all cases: BIAcore
Background: In SPR one partner is held on a chip, and binding of the other changes the refractive index at the surface.

Experiment [1] has as its target T1, human interleukin 12 (p70 heterodimer of p35 and p40) (human, UniProt P29459 23-219; P29460 23-328).
T1 construct: Recombinant human IL-12; p35 and p40 linked by a disulfide bridge; also called hIL-12; IL-12
T1 sequence (looked up) 1: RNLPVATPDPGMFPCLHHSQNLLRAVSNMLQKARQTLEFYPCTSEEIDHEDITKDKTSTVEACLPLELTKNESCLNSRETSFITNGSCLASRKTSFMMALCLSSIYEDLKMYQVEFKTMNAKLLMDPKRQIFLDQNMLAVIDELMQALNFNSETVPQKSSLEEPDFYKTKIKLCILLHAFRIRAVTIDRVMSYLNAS
T1 sequence (looked up) 2: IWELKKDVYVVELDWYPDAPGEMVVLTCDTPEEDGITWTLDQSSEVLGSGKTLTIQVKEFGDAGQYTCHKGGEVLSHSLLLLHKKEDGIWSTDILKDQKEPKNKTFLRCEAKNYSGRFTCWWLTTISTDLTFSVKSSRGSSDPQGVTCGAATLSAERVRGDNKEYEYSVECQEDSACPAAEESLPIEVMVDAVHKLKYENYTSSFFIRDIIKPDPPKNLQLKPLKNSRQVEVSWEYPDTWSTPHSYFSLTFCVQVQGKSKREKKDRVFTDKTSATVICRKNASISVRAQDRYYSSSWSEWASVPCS

The target in experiment [2] is T1, human interleukin 12 (p70 heterodimer …). The source holds these as a separate data set.
Experiment [3] shares this target. The source holds these as a separate data set.
For experiment [4] the target is unchanged. This is another data set of the same source.
Experiment [5] has the same target. The source holds these as a separate data set.
Experiment [6] shares this target. The source holds these as a separate data set.
The target is the same in experiment [7]. This is another data set of the same source.

B1: Y61 scFv (scFv, V domains shown)
VH: QVQLVQSGGGVVQPGRSLRLSCAASGFTFSSYGMHWVRQAPGKGLEWVAFIRYDGSNKYYADSVKGRFTISRDNSKNTLYLQMKSLRAEDTAVYYCKTHGSHDNWGQGTMVTVSS
VL: SYVLTQPPSVSGTPGQRVTISCSGGRSWIGSNTVKWYQQLPGTAPKLLIYGNDQRPSGVPDRFSGSKSGTSASLAITGVQAEDEADYYCQSYDRGTHPALLFGTGTKVTVLG
notes: Single chain Fv; also called clone Y61
Consider B1, for which the koff in experiment [1] was 0.000385 s⁻¹ and 0.00031 s⁻¹; in experiment [2] it was 0.000211 s⁻¹ and 0.000229 s⁻¹ and 0.000241 s⁻¹; in experiment [3], 0.000204 s⁻¹ and 0.000206 s⁻¹ and 0.000151 s⁻¹ and 0.000178 s⁻¹; in experiment [4], 0.000249 s⁻¹ and 0.000168 s⁻¹ and 0.000337 s⁻¹ and 0.000178 s⁻¹; in experiment [5] it was 0.000215 s⁻¹ and 0.000297 s⁻¹; in experiment [6], 0.000403 s⁻¹. The koff in experiment [7] is 0.000259 s⁻¹ and 0.000199 s⁻¹ and 0.000256 s⁻¹.
